Source: the RNAGym collection of RNA variant scans (doi:10.1073/pnas.2313332121)

B1: TPR t1 (parent)
chain: GACCAAUCUGCCCUCAGAGCUCGAGAACAUCUUCGGAUGCAGAGGAGGCAGGCUUCGGUGGCGCGAUAGCGCCAACGUCCUCAACCUCCAAUGCAUCCCACCACAUGAUGAUGCCUGAAGAGCCUUGGUUUUUUG

Variants of: B1
Assay: polymerase ribozyme fitness, log enrichment relative to wild type (log ratio); higher = more active; in vitro selection for triplet polymerase activity
Procedure, shortened: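 Fitness compares each genotype's enrichment to that of the wild type on a logarithmic scale, averaging replicates with inverse-variance weights. The logarithm is base 2. Enrichment came from Illumina sequencing of input and output libraries after one triplicate round of in vitro selection, which included frozen incubation at −7 °C, of PCR-built, transcribed mutant libraries of each subunit of a heterodimeric triplet polymerase ribozyme. Only genotypes with ≥10 input reads and ≥1 read per output were kept.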

Row | Variant | polymerase ribozyme fitness (log ratio)
1 | C40A G63U U81A U129A | -5.05
2 | C40U G48U C79A C124U | -3.57
3 | C40A C70U G113A | -2.79
4 | C40A A46U G69U C80U G110A U112G | -7.41
5 | C40U C73A C101U | -0.192
6 | C40U C72G G117U U130A | -4.89
7 | C40G A46G C64U | -1.62
8 | C40A G44C C53A U55G G128A | -3.45
9 | C40A C89G C101A U130G | -5.66
10 | C40G G47U C49A | -3.74
11 | C40A A46U | -3.32
12 | C40U G63C C115A G135U | -1.95
13 | C40A A50U C89U | -1.95
14 | C40U G57U G120C | 0.687
15 | C40G G45A | -2.11
16 | C40G U54A G61C A100U | -4.7
17 | C40U C56A C82G C97U C115U U132C | -4.39
18 | C40A G61U U109G | -6.14
19 | C40U C56G A84C C88A U109A | -7.02
20 | C40A A43G C53U G58A | -4.13
21 | C40G G71U G117A | -2.71
22 | C40U C62U C85G | -2.44
23 | C40U A46U G52A C70U | -3.49
24 | C40A C70A G93U | -1.59

Row | Variant | polymerase ribozyme fitness (log ratio)
25 | C40A C88U | -0.447
26 | C40A C56G G60A | -3.73
27 | C40U G42U | -1.7
28 | C40U G42C | -2.23
29 | C40G G117U | -3.26
30 | C40U G61C U129A | -3.93
31 | C40G G71U A105U | -3.41
32 | C40A C62U A91U G93C C104U G113A | -2.62
33 | C40G A46G G61C C85U | -6.04
34 | C40G C70U | -1.65
35 | C40G G128A | -3.61
36 | C40A G60A U81A | -2.66
37 | C40U C79A C101U | -2.1
38 | C40A G52A C72U A91G | -4.17
39 | C40U U112A U116C | -1.95
40 | C40U C101A U112C | 0.157
41 | C40G C56A C79G C101U G110A | -6.02
42 | C40G U112C | 0.984
43 | C40U A84U G117U C123G | -1.94
44 | C40G G69C C72U C89A | -3.57
45 | C40U G45C C49U G63U A83U C124G | -6.14
46 | C40U G61C | -2.59
47 | C40U G61A | -0.522
48 | C40U G48U C62G | -3.32

Row | Variant | polymerase ribozyme fitness (log ratio)
49 | C40A U129C | -1.74
50 | C40U C98G | -6.34
51 | C40U C56U U78C C89G | -2.2
52 | C40U G69C | -1.61
53 | C40A C80G U109A U133A | -7.59
54 | C40A G42U C56A | -2.35
55 | C40G C72U U78C | -1.15
56 | C40A G52U G63U U112A | -2.78
57 | C40A G61U | -1.59
58 | C40A G61A | -0.734
59 | C40U G60A A95U G117C A121C | -6.15
60 | C40G G42A U59A A95G C123G | -2.1
61 | C40A G69U | -0.43
62 | C40A G69A | -4.81
63 | C40G U87G | -1.6
64 | C40G C49G G51A C76U | -4.64
65 | C40G C72G C82U U106A | -2.01
66 | C40U U55C C70A U96A | -3.02
67 | C40G A84U | -1.56
68 | C40A A66C G77A | -3.74
69 | C40G G61A G120A | 0.253
70 | C40A G61U G93C C94G C124U | -1.28
71 | C40U G42C C53A C104A | -4.78
72 | C40U G57A C85A U112A G122C C123A | -1.77

Row | Variant | polymerase ribozyme fitness (log ratio)
73 | C40A U112A | -0.958
74 | C40G C64U C85A U112C | -0.298
75 | C40G C114U C123U | -4.09
76 | C40A G48A | -2.24
77 | C40A G63C C123U | -0.868
78 | C40U C88A U106C | -1.06
79 | C40U C72A C82G C102A G120A G122U | -3.11
80 | C40U A83C | -0.818
81 | C40G C79A | -2.58
82 | C40G C79U | -1.27
83 | C40A A43U G63U C89U C102U U106C C123A | -7.19
84 | C40G C72G C115G C123G G128C | -4.8
85 | C40U A74G | -0.128
86 | C40A G60A | -1.03
87 | C40A G60C | -3.13
88 | C40U A95C | -1.45
89 | C40G A41C | -3.16
90 | C40U U67C G71U C89U U109A G117C A121U G128A U134A | -5.54
91 | C40A A84G C104A G120C G135A | -4.9
92 | C40A A91G C99U A111U G122A | -6.79
93 | C40G C72U G127C | -2.34
94 | C40G C62U U87G | -1.61
95 | C40A C49A C86G | -3.35
96 | C40U G45A | -1.41

Row | Variant | polymerase ribozyme fitness (log ratio)
97 | C40U G45U | -2.01
98 | C40A G63U C104U C115G | -3.72
99 | C40G C56G G122A | -1.45
100 | C40G C62U | -1.8
101 | C40G G45U A90U G93U | -4.32
102 | C40G G63U | -1.85
103 | C40G G63A | -1.91
104 | C40U G93A U96G | -0.786
105 | C40U G47C G58A G117A | -4.37
106 | C40U G52U C88U | -1.18
107 | C40G G45A U78C G113U G135A | -4.25
108 | C40A A50U | -1.94
109 | C40G C114U | -2.54
110 | C40G C56A C86U | -1.71
111 | C40G U55A G63U C124U | 0.229
112 | C40U G42A C56U C80U G120U U132C | -3.64
113 | C40G U78A | -0.582
114 | C40A G120U | -0.939
115 | C40A G120A | -0.957
116 | C40A G71A U125A | -2.51
117 | C40U C62G A111G | -2.32
118 | C40G G52A G117A | -2.65
119 | C40U A50G U130C | -0.13
120 | C40G U125A | -1.17

Row | Variant | polymerase ribozyme fitness (log ratio)
121 | C40G C56G | -1.42
122 | C40G G47U C64U G93U U129C U133G | -3.04
123 | C40U G61C C72U C88A | -1.95
124 | C40U C53A G60A G69U | -0.0565
125 | C40U G44A C62U | -1.32
126 | C40G U92A U109A U116C | -5.03
127 | C40A A41U A50C | -1.94
128 | C40G U55G C62U U78G | -2.04
129 | C40A G61C C79G | -3.56
130 | C40U G63C | -0.94
131 | C40U C76G G120C | 0.524
132 | C40U G69A C99A C114G | -8.02
133 | C40G A43U U54G | -2.72
134 | C40U G47C U116G U132C | -4.13
135 | C40U G52C G93A | -1.38
136 | C40G C104A C124G | 0.0636
137 | C40U A41G G44A U59G G60U U112A | 0.462
138 | C40A U54G C62U | -1.83
139 | C40G A43U | -2.95
140 | C40U G61U G71A C99U G120A | -6.74
141 | C40U G110U | -2.35
142 | C40G G48A C64U C104A U109A C114A U130A | -5.98
143 | C40U G57U | -0.292
144 | C40U A90C U132A | -1.85

Row | Variant | polymerase ribozyme fitness (log ratio)
145 | C40A G117U | -4.5
146 | C40U C101U C124A | 1.16
147 | C40A G77C | -1.98
148 | C40A G77A | -1.33
149 | C40A A43U G44C G110U C114U | -5.04
150 | C40U C73U G113A | -1.98
151 | C40A C73U U125G | -1.92
152 | C40G C123G | 0.299
153 | C40G C123U | 0.0444
154 | C40A G69C U106A C124A | -1.51
155 | C40A G48A G61A U92A C94U A105G | -7.09
156 | C40A A41C C115A | -2.44
157 | C40A G71U C115G C123G | -5.05
158 | C40A C49A C53U G110A U130G | -4.63
159 | C40U G113C | -2.55
160 | C40U C53A C73A C104U C123G | 1.24
161 | C40G G107A | -6.63
162 | C40U G63C A121C | 0.618
163 | C40G C56U C88U G122U | -2.63
164 | C40G A50U G120C | -0.881
165 | C40A U81C | -1.68
166 | C40A G48A G117C | -5.6
167 | C40U G44A | -0.755
